Non-standard residues stand in square brackets, D forms with d. Primed or numbered codes have the meaning given here. No end group written: not given here. pG″ = pyro form of the N-terminal glycine (pyroglycine); pG = not defined here
T1: luteinizing hormone releasing hormone (LHRH) receptor (UniProt P30968 1-328, limits assumed)
T1 sequence (looked up): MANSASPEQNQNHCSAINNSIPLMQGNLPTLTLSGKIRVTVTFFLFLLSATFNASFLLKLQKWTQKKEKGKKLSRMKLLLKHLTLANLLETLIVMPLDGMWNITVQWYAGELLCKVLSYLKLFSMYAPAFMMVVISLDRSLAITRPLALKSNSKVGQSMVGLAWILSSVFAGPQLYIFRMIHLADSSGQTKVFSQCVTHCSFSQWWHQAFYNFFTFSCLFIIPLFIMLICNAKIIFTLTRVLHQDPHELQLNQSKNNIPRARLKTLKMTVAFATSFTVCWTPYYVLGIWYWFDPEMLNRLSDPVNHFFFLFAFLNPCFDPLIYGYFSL


How the values were obtained:
OVCAR3 cells [1] = test: cellular uptake of labeled siRNA by flow cytometry; assay type: cell-based; details: for uptake efficiency: OVCAR3, siNT-DY547, 4 hours; for uptake efficiency, tandem vs LHRH peptide: FIG. 10E, 4 hr, cell line not stated
Experimental: Cellular Uptake. OVCAR3 and CAOV3 cells were prepared at 50,000 cells per well in a 24-well plate. […] Post-incubation, media was aspirated and cells were washed with 1× PBS. To counterstain the nuclei, SuperSignal NucBlue Hoechst stain (Thermo Fisher, Waltham, MA) was added to the cells for 30 minutes, followed by an additional 1×PBS wash. Subsequent imaging was performed using an EVOS FL Microscope (Thermo Fisher) at 10× magnification. For flow cytometric analysis, cells were detached, resuspended in 1× PBS, and analyzed using an Attune NXT Acoustic flow cytometer (Invitrogen, Carlsbad, CA) with the blue laser line and BL2 (574/26 nm) channel.
Cellular Uptake and Targeting Specificity. Observation of cell uptake was performed by seeding OVCAR3 and CAOV3 cells at a density of 50,000 cells per well in a 24-well plate. LHRH and LHRH-DIV3W peptides were complexed with […] as previously described and delivered to cells at 20:1 to 80:1 N:P ratios. Each cell line was incubated with tandem peptide complexes for both 4- and 24-hour treatment periods. Following incubation, cell media was removed, and cells were washed with 1× PBS prior to the addition of 500 μL of 1×PBS and SuperSignal NucBlue Hoescht 33342 nuclear stain (Thermo Fisher, Waltham, MA). Cellular imaging was completed using an EVOS FL Microscope (Thermo Fisher) at 10×, 20×, and 40× magnification. Flow cytometry was completed after cell imaging and cells were trypsinized, resuspended in 1×PBS, and analyzed with an Attune NXT Acoustic Flow Cytometer (Invitrogen) with the red laser line and RL2 […] channel.

RNase A = test: gel assay of siRNA protection from RNase A degradation; assay type: in vitro ADME; details: 1 hour, several N:P ratios
Experimental: (§1) Gel Shift Assays. DIVA3, DIV3H, and DIV3W (all three denoted as DIV3 (X)) peptides suspended in RNase-free water (10 μM), were thawed, and kept on ice prior to complexation with 10 μM of negative control siGENOME non-targeting siRNA #5 (siNT, GE Healthcare Dharmacon, Lafayette, CO) in RNase-free water and incubated for 20 minutes at room temperature to allow the formation of DIV3 (X)-siNT complexes. Various molar ratios of peptides were complexed with siNT at increasing N:P molar ratios to determine the minimum molar ratio necessary to completely complex free siRNAs using an electrophoretic mobility shift assay. To determine the ability of each peptide variant to protect siRNAs from degradation, DIV3 (X)-siNT complexes or siNT alone was left untreated or incubated with either 50% v/v FBS or 5 μg/mL RNase A at 37° C. for one hour. Next, complexes were dissociated using 6% sodium dodecyl sulfate (SDS). Samples were added to a 2% agarose gel and run at 100 V. Gels were stained with ethidium bromide, destained with Milli-Q water, and imaged using a ChemiDoc XRS imager (Bio-Rad, Hercules, CA).
(§2) Characterization of Nanoparticle Size and Stability. To determine the minimum molar ratio necessary to completely complex free siRNAs, increasing N:P molar ratios of LHRH, DIV3W, and LHRH-DIV3W peptide were complexed with siRNAs and electrophoresed using a electrophoretic mobility shift assay. Molar ratios, shown as N:P, are representations of the molar amine peptide content in relation to 1 mole of phosphate group siRNA content. To determine the ability of the peptides to protect siRNAs from serum- or RNase-mediated degradation, LHRH and LHRH-DIV3W complexes were formed in RNase-free water with siNT at increasing N:P molar ratios and incubated at 37° C., 5% CO2, 50% v/v FBS, 5 μg/mL RNase A, or 50% v/v RNase free water for 1 hour. Peptide/siRNA complexes were dissociated using 6% sodium dodecyl sulfate (SDS) prior to electrophoresis in a 2% agarose gel run at 100 V. Gels were stained with ethidium bromide, washed with Milli-Q water, and imaged with a BioRad ChemiDoc XRS imager (BioRad, Hercules, CA).
(§3) Peptides VA-LD and GF-LD, comprising the cleavable linker VA or GLFG, respectively, between the LHRH target sequence and the DIV3W peptide, and non targeting siRNA were electrostatically complexed at increasing N:P ratios then subjected to agarose gel electrophoresis to determine optimal siRNA binding for each peptide. […] Peptide-siRNA nanocomplexes at increasing N:P ratios for peptides for VA-LD (FIG. 30A) and GF-LD (FIG. 30C) were incubated in either Rnase A enzyme or in 50% fetal bovine serum (FBS) for 1 h, dissociated using SDS then subjected to gel electrophoresis to visualize siRNA bands. Gels showing increasing N:P ratios of peptide:siRNA for VA-LD (FIG. 30B) and GF-LD (FIG. 30D) from 20:1 to 80:1 N:P; white bands are indicative of intact siRNA

[2] = dynamic light scattering, size and zeta potential of peptide/siRNA complexes; assay type: physicochemical; details: for zeta potential: DIV3 (X) peptide/siRNA complexes
Experimental: Dynamic Light Scattering and Transmission Electron Microscopy. DIV3 (X)-siNT complexes were prepared at 2 mg/mL in RNase-free water. Hydrodynamic size and surface charge of the peptide/siRNA complexes were determined using a Nano ZS Zetasizer (Malvern Pananalytical, Malvern, UK). All data were recorded using Malvern's Zetasizer software.
To determine nanoparticle size and zeta potential, peptides resuspended in RNase-free water (10 μM) were thawed and kept on ice prior to complexation with 10 μM of siNT in RNase-free water and incubated for 20 minutes at room temperature to form DIV3W-siNT and LHRH-DIV3W-siNT complexes. Peptide complexes were prepared at 2 mg/mL in RNase-free water. Hydrodynamic size and surface charge analysis was conducted using a Malvern Nano ZS Zetasizer (Malvern Panalytical, Malvern, UK). All data was analyzed using Malvern's Zetasizer software.

CSNK2A1 mRNA = test: qPCR of CSNK2A1 mRNA in OVCAR3 cells; assay type: cell-based; details: OVCAR3, 48 hours
Experimental: qRT-PCR. Cells were seeded at 50,000 cells per well and treated with siRNA targeting CSNK2A1 (siCSNK2A1 #s3638, Thermo Fisher Scientific) at increasing N:P ratios and incubated for a total of 48 hours in McCoys 5A/DMEM-10% FBS. Treated cells were washed with 1×PBS at 24 hours and fresh media was added. RNAisolation was completed using a Qiagen Mini-RNeasy Kit (Qiagen, Hilden, Germany) according to the manufacturer's protocol. RNA isolation quality and quantity were measured through the Gen5 protocol using a Take3 plate (BioTek). RNA was reverse-transcribed using the QuantiTect Reverse Transcription kit (Qiagen). Quantitative real-time PCR was completed with a QuantStudio 3 qPCR system (Applied Biosystems) using Applied Biosystems TaqMan FAST Master Mix (Thermo Fisher) and CSNK2A1 (ID #Hs00751002_s1) and 18S (ID #Hs99999901_s1) predesigned TaqMan probes, according to the manufacturer's protocol.
Gene and Protein Knockdown. Bioactivity of siRNAs was determined via qPCR and western blot analysis. OVCAR3 or CAOV3 cells were seeded at 50,000 cells per well as previously described and treated with siRNA targeting CSNK2A1 and siNT at N:P ratios 30:1, 40:1, 50:1, 60:1, and 70:1. LHRH-DIV3W peptide complexed with either siNT or siCSNK2A1 was incubated for a total of 48 hours in RPMI 1640/DMEM-10% FBS, with one media exchange occurring after the 24-hour timepoint. Treated cells were washed with 1×PBS at 24 hours and fresh media was added. RNA isolation was completed using a Qiagen Mini-RNeasy Kit (Qiagen, Hilden, Germany) according to the manufacturer's protocol. RNA isolation quality and quantity was measured through the Gen5 protocol using a Take3 plate (BioTek). RNA was reverse transcribed using the QuantiTect Reverse Transcription kit (Qiagen) according to the manufacturer's protocol. Quantitative real-time PCR was completed with a QuantStudio 3 qPCR system (Applied Biosystems, Waltham, MA) using Applied Biosystems TaqMan FAST Master Mix (Thermo Fisher) and CSNK2A1 (ID #Hs00751002_s1) and 18S (ID #Hs99999901_s1) predesigned TaqMan probes according to the manufacturer's protocol.

[3] = gel assay of siRNA protection from degradation in 50% serum; assay type: in vitro ADME; details: 50% FBS, 1 hour, several N:P ratios
Experimental: as §1, §2, §3

OVCAR3 cells [4] = test system: OVCAR3 cells
Experimental: (§4) Cells were seeded at 10,000 cells per well with complete culture media in a 96-well plate and incubated overnight to allow the cells to attach. DIV3 (X) peptides were complexed with siNT at 40:1 to 80:1 N:P molar ratios. DIV3 (X)-siNT complexes were incubated with OVCAR3 or CAOV3 cells at a final concentration of 100 nM siRNA and 10% FBS for 24 hours. Media was then aspirated, cells were washed with 1× phosphate-buffered saline (PBS), and fresh media with 10% FBS was added to each well and incubated another 24 hours.
Viability was measured using an MTS Assay performed with CellTiter 96 AQueous One Solution Cell Proliferation Assay (Promega, Madison, WI). Assay reagent was added according to the manufacturer's protocol, and cells were incubated for 4 hours. Absorbance was read using a BioTek Synergy LX (BioTek, Winooksi, VT) plate reader at 490 nm. An MTS cell viability assay was also conducted as described for OVCAR3 and CAOV3 cells treated with DIV3W-siRNA complexes.
OVCAR3 or CAOV3 cells were seeded at 10,000 cells per well with complete culture media in a transparent 96-well plate and incubated overnight to allow the cells to attach. LHRH and LHRH-DIV3W peptides were delivered to cells without siRNA cargo. After 24 hours of incubation the media was exchanged and after another 24-hour incubation at 37° C. in 5% CO2, viability was measured using an MTS Assay performed with the CellTiter 96 AQueous One Solution Assay (Promega, Madison, WI). Assay reagent was added according to the manufacturer's protocol and cells were incubated for 4 hours. Absorbance was read using a BioTek Synergy LX (BioTek, Winooksi, VT) plate reader at 490 nm.

ES2 ovarian cancer cells [5] = test: cellular uptake of cy5 siRNA, microscopy and flow cytometry; assay type: cell-based, human; details: ES2, 4 hours, N:P ratios of 20:1-40:1
Experimental: Peptides, VA-LD and GF-LD, and cy5 labeled non targeting siRNA were electrostatically complexed at increasing N:P ratios and delivered to human ovarian ES2 cells for 4 hours.

ES2 ovarian cancer cells [6] = test system: ES2 ovarian cancer cells
Experimental: VA-LD and GF-LD peptides were electrostatically complexed with and non targeting siRNA at increasing N:P ratios. Complexes were delivered to human ovarian ES2 cells for 48 hours and analyzed via MTS assay.

[7] = target: T1, luteinizing hormone releasing hormone …; test: cell-based or functional assay

Experimental for CAOV3 cells: as §4
Viability was measured using an MTS Assay performed with CellTiter 96 AQueous One Solution Cell Proliferation Assay (Promega, Madison, WI). Assay reagent was added according to the manufacturer's protocol, and cells were incubated for 4 hours. Absorbance was read using a BioTek Synergy LX (BioTek, Winooksi, VT) plate reader at 490 nm. […]
OVCAR3 or CAOV3 cells were seeded at 10,000 cells per well with complete culture media in a transparent 96-well plate and incubated overnight to allow the cells to attach. […] After 24 hours of incubation the media was exchanged and after another 24-hour incubation at 37° C. in 5% CO2, viability was measured using an MTS Assay performed with the CellTiter 96 AQueous One Solution Assay (Promega, Madison, WI). […] Absorbance was read using a BioTek Synergy LX (BioTek, Winooksi, VT) plate reader at 490 nm.

Molecule | uptake efficiency (OVCAR3 cells [1]; 80:1) | intact siRNA after incubation with RNase A (RNase A) | zeta potential [2] | intact siRNA after incubation in 50% serum [3] | delivery of cy5 siRNA (ES2 ovarian cancer cells [5]) | biocompatibility of peptide/non-targeting siRNA complexes (ES2 ovarian cancer cells [6]) | further results
WEADIVADIVADIVAGGG-(d) RRRRRRRRR (WEADIVADIVADIVAGGG[dR][dR][dR][dR][dR][dR][dR][dR][dR]) [DIVA3] | 63.6% | Reduction of intact siRNA signal | ~20 mV | Reduction of intact siRNA signal |  |  | CSNK2A1 mRNA silencing (knockdown) (CSNK2A1 mRNA; 60:1, vs siNT complex): 47%
WEADIVADIVHDIVADIVAGGG-(d) RRRRRRRRR (WEADIVADIVHDIVADIVAGGG[dR][dR][dR][dR][dR][dR][dR][dR][dR]) [DIV3H] | 52.1% |  | ~30 mV | Reduction of intact siRNA signal |  |  | hydrodynamic diameter ([2]; DIV3 (X) peptide/siRNA complex at 60:1 ratio): around 100 nm; CSNK2A1 mRNA silencing (knockdown) (CSNK2A1 mRNA; 80:1, vs siNT complex): 72%
pGHWSY-(d) L-LRP ([pG]HWSY[dL]LRP; reading uncertain) [LHRH, reference compound] |  |  |  |  |  |  | uptake efficiency, tandem vs LHRH peptide (OVCAR3 cells [1]; 40:1): 34.3%±0.56%; uptake efficiency, tandem vs LHRH peptide (OVCAR3 cells [1]; 60:1): 34.83%±2.75%; uptake efficiency, tandem vs LHRH peptide (OVCAR3 cells [1]; 80:1): 33.87%±1.63%; cytotoxicity of peptide alone (CAOV3 cells): biocompatibility; cytotoxicity of peptide alone (OVCAR3 cells [4]): biocompatibility
pGHWSY-LLRPGGGGFLGWEADIVADIVWDIVADIVAGGG-RRRRRRRRR ([pG]HWSY[dL]LRPGGGGFLGWEADIVADIVWDIVADIVAGGG[dR][dR][dR][dR][dR][dR][dR][dR][dR]; reading uncertain) [GF-LD] |  | protect siRNA in physiologically relevant environments |  | protect siRNA in physiologically relevant environments | deliver siRNA to ES2 ovarian cancer cells | biocompatible | 
pGHWSY-LLRPGGGVAWEADIVADIVWDIVADIVAGGG-RRRRRRRRR ([pG]HWSY[dL]LRPGGGVAWEADIVADIVWDIVADIVAGGG[dR][dR][dR][dR][dR][dR][dR][dR][dR]; reading uncertain) [VA-LD] |  | protect siRNA in physiologically relevant environments |  | protect siRNA in physiologically relevant environments | deliver siRNA to ES2 ovarian cancer cells | biocompatible | 
[pG″]HWSY[dL]LRPGGGGGWEADIVADIVWDIVADIVAGGG[dR][dR][dR][dR][dR][dR][dR][dR][dR] [LHRH-DIV3W tandem peptide] |  |  |  |  |  |  | cell viability (MTS), OVCAR3 cells, peptide without siRNA at the 20:1 ratio [7]: 110%

Reference: patent US20250177548A1, “FUSOGENIC PEPTIDE COMPOSITIONS AND METHODS OF CARGO DELIVERY” (CLEMSON UNIVERSITY, priority 2022, published 2025)
